Biological target: T1, 脆弱拟杆菌毒素BFT1全长蛋白(BFT1-sFL)，不含信号肽 (Bacteroides fragilis (产肠毒素脆弱拟杆菌, ETBF), UniProt P54355 26-405)
T1 construct: domain: 不含信号肽全长 (full length without signal peptide, pro domain kept); Recombinant protein from E. coli; This is not the processed catalytic domain alone: the pro domain is still present; also called BFT重组蛋白; BFT全长
T1 sequence: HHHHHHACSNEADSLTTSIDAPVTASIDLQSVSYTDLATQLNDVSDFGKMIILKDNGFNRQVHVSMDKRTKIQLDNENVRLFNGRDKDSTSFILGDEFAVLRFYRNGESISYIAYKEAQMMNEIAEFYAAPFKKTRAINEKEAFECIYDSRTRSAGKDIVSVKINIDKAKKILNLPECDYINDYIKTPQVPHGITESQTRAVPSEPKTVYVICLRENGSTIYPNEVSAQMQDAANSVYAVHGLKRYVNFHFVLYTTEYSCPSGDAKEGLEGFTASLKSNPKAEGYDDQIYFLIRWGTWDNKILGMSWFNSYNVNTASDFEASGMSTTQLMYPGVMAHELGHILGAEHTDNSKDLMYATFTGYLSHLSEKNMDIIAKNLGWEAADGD
Test: ITC (Microcal PEAQ-ITC), 20℃, nanobody about 20 μM, BFT1-sFL about 200 μM, 20mM Tris-HCl pH 8.0, 150mM NaCl, 5% glycerol

B1: 结直肠癌相关的抗脆弱拟杆菌毒素蛋白激活体的特异性纳米抗体Nb3.27 (VHH)
VHH: QVQLQESGGGLVQAGGSLRLSCTYSGQTFSAWAMGWFRQAPGKERETVATINWNGERTQYADAVKGRFTISRDNAKDTVYLEMNSLKPEDTAVYYCASMMGTYYSGSPKNWGQGTQVTVSS
notes: also called BFT-211纳米抗体; BFT1-sFL纳米抗体
Kd: 15.3 nM
